Laboratory results: patent US20140087995A1 (published 2014)
Blank lines part the entries; values can stand above or below the binder they belong to. Numbered stars: 1 amine (or outer) side, 2 acyl side, 3 side chain; on linkers, the order of the positions; unused ones are H or OH. Bridge positions count the residues as written; N and C are the ends. Side chains are listed from the residue outwards. Ends that are not written are not given here. * marks the point of attachment. C20 diacid = O=C(O)CCCCCCCCCCCCCCCCCCC(=O)*; γGlu = O=C(O)[C@H](CCC(=O)[*:2])N[*:1]; AEEA = NCCOCCOCC(=O)O

Tests used:
[1] = target: T1, human calcitonin receptor (human, UniProt P30988 25-474); experiment: SPA radioligand competition (125I-calcitonin), membranes of BHK cells with human calcitonin receptor
T1 construct: whole, on cells; also called hCTR; hCT
T1 sequence (looked up): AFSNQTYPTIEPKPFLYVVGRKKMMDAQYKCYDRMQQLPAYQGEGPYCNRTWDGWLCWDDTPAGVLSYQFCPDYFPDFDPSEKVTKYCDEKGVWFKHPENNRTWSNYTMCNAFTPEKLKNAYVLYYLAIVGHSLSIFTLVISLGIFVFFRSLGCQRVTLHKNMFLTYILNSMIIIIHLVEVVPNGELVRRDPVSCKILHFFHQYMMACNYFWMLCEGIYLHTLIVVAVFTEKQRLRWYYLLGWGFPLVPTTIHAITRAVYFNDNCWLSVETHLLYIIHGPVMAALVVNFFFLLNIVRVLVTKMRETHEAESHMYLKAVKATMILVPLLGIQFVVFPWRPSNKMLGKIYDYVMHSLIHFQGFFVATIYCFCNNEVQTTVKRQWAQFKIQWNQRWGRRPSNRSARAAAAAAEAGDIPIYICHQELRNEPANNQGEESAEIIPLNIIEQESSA
How it was run: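 BHK hCTR membranes 35 ng/μL + SPA beads 0.05 mg/well; buffer 50 mM Hepes pH 7.4, 1 mM CaCl2, 5 mM MgCl₂, 0.1% OA, 0.02% Tween20. 120 min, 25° C., shaking. Scintillation count; IC50 by one-site binding competition.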

[2] = target: T1, human calcitonin receptor; experiment: ratio of IC50 at human calcitonin receptor to IC50 at human amylin receptor (SPA competition assays)
How it was run: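 IC₅₀ values were derived by one-site competition analysis of SPA counts. Cell membranes (35 ng/μL) with SPA beads were incubated with test compounds for 120 min at 25° C in Hepes buffer, pH 7.4, containing CaCl2, MgCl₂, OA and Tween20.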

IC50 [1]: 7.87 nM
Ratio hCT/hAmylin binding [2]: 36.2
B2: N^-1-[(4S)-4-carboxy-4-(19-carboxynonadecanoylamino)butanoyl]-Gly[Arg1,His14,Arg17,Pro21,Pro27,Pro34]-h-amylin (peptide)
peptide: {C20 diacid-γGlu}-GRCNTATCATQRLAHFLRHSSPNFGAIPSSTNVGPNTY-NH2
modifications: disulfide 3-8
SMILES: CC[C@H](C)[C@H](NC(=O)[C@H](C)NC(=O)CNC(=O)[C@H](Cc1ccccc1)NC(=O)[C@H](CC(N)=O)NC(=O)[C@@H]1CCCN1C(=O)[C@H](CO)NC(=O)[C@H](CO)NC(=O)[C@H](Cc1c[nH]cn1)NC(=O)[C@H](CCCNC(=N)N)NC(=O)[C@H](CC(C)C)NC(=O)[C@H](Cc1ccccc1)NC(=O)[C@H](Cc1c[nH]cn1)NC(=O)[C@H](C)NC(=O)[C@H](CC(C)C)NC(=O)[C@H](CCCNC(=N)N)NC(=O)[C@H](CCC(N)=O)NC(=O)[C@@H](NC(=O)[C@H](C)NC(=O)[C@@H]1CSSC[C@H](NC(=O)[C@H](CCCNC(=N)N)NC(=O)CNC(=O)CC[C@H](NC(=O)CCCCCCCCCCCCCCCCCCC(=O)O)C(=O)O)C(=O)N[C@@H](CC(N)=O)C(=O)N[C@@H]([C@@H](C)O)C(=O)N[C@@H](C)C(=O)N[C@@H]([C@@H](C)O)C(=O)N1)[C@@H](C)O)C(=O)N1CCC[C@H]1C(=O)N[C@@H](CO)C(=O)N[C@@H](CO)C(=O)N[C@H](C(=O)N[C@@H](CC(N)=O)C(=O)N[C@H](C(=O)NCC(=O)N1CCC[C@H]1C(=O)N[C@@H](CC(N)=O)C(=O)N[C@H](C(=O)N[C@@H](Cc1ccc(O)cc1)C(N)=O)[C@@H](C)O)C(C)C)[C@@H](C)O

IC50 [1]: 3 nM
Ratio hCT/hAmylin binding [2]: 26.5
Binder: {C20 diacid-γGlu}-GRCNTATCATQRLAAFLRHSSPNFGAIPSSTNVGPNTY-NH2 (disulfide 3-8)

IC50 [1]: 35 nM
Ratio hCT/hAmylin binding [2]: 100
B4: N{-1}-[(4S)-4-carboxy-4-(19-carboxynonadecanoylamino)butanoyl]-Gly[Arg1,His14,Arg17,Pro21,Pro27]-h-amylin (peptide)
peptide: {C20 diacid-γGlu}-GRCNTATCATQRLAHFLRHSSPNFGAIPSSTNVGSNTY-NH2
modifications: disulfide 3-8
SMILES: CC[C@H](C)[C@H](NC(=O)[C@H](C)NC(=O)CNC(=O)[C@H](Cc1ccccc1)NC(=O)[C@H](CC(N)=O)NC(=O)[C@@H]1CCCN1C(=O)[C@H](CO)NC(=O)[C@H](CO)NC(=O)[C@H](Cc1c[nH]cn1)NC(=O)[C@H](CCCNC(=N)N)NC(=O)[C@H](CC(C)C)NC(=O)[C@H](Cc1ccccc1)NC(=O)[C@H](Cc1c[nH]cn1)NC(=O)[C@H](C)NC(=O)[C@H](CC(C)C)NC(=O)[C@H](CCCNC(=N)N)NC(=O)[C@H](CCC(N)=O)NC(=O)[C@@H](NC(=O)[C@H](C)NC(=O)[C@@H]1CSSC[C@H](NC(=O)[C@H](CCCNC(=N)N)NC(=O)CNC(=O)CC[C@H](NC(=O)CCCCCCCCCCCCCCCCCCC(=O)O)C(=O)O)C(=O)N[C@@H](CC(N)=O)C(=O)N[C@@H]([C@@H](C)O)C(=O)N[C@@H](C)C(=O)N[C@@H]([C@@H](C)O)C(=O)N1)[C@@H](C)O)C(=O)N1CCC[C@H]1C(=O)N[C@@H](CO)C(=O)N[C@@H](CO)C(=O)N[C@H](C(=O)N[C@@H](CC(N)=O)C(=O)N[C@H](C(=O)NCC(=O)N[C@@H](CO)C(=O)N[C@@H](CC(N)=O)C(=O)N[C@H](C(=O)N[C@@H](Cc1ccc(O)cc1)C(N)=O)[C@@H](C)O)C(C)C)[C@@H](C)O
notes: also called compound 99

Second part, the binder before the results:

B1: N^-1-[(4S)-4-carboxy-4-(19-carboxynonadecanoylamino)butanoyl]-Gly[Arg1,His14,Arg17,Pro21,Pro27,His34]-h-amylin (peptide)
peptide: {C20 diacid-γGlu}-GRCNTATCATQRLAHFLRHSSPNFGAIPSSTNVGHNTY-NH2
modifications: disulfide 3-8
SMILES: CC[C@H](C)[C@H](NC(=O)[C@H](C)NC(=O)CNC(=O)[C@H](Cc1ccccc1)NC(=O)[C@H](CC(N)=O)NC(=O)[C@@H]1CCCN1C(=O)[C@H](CO)NC(=O)[C@H](CO)NC(=O)[C@H](Cc1c[nH]cn1)NC(=O)[C@H](CCCNC(=N)N)NC(=O)[C@H](CC(C)C)NC(=O)[C@H](Cc1ccccc1)NC(=O)[C@H](Cc1c[nH]cn1)NC(=O)[C@H](C)NC(=O)[C@H](CC(C)C)NC(=O)[C@H](CCCNC(=N)N)NC(=O)[C@H](CCC(N)=O)NC(=O)[C@@H](NC(=O)[C@H](C)NC(=O)[C@@H]1CSSC[C@H](NC(=O)[C@H](CCCNC(=N)N)NC(=O)CNC(=O)CC[C@H](NC(=O)CCCCCCCCCCCCCCCCCCC(=O)O)C(=O)O)C(=O)N[C@@H](CC(N)=O)C(=O)N[C@@H]([C@@H](C)O)C(=O)N[C@@H](C)C(=O)N[C@@H]([C@@H](C)O)C(=O)N1)[C@@H](C)O)C(=O)N1CCC[C@H]1C(=O)N[C@@H](CO)C(=O)N[C@@H](CO)C(=O)N[C@H](C(=O)N[C@@H](CC(N)=O)C(=O)N[C@H](C(=O)NCC(=O)N[C@@H](Cc1c[nH]cn1)C(=O)N[C@@H](CC(N)=O)C(=O)N[C@H](C(=O)N[C@@H](Cc1ccc(O)cc1)C(N)=O)[C@@H](C)O)C(C)C)[C@@H](C)O
notes: also called compound 100
IC50 [1]: 66.3 nM
Ratio hCT/hAmylin binding [2]: 65.3

B3: N^-1-[(4S)-4-carboxy-4-(19-carboxynonadecanoylamino)butanoyl]-Gly[Arg1,Ala14,Arg17,Pro21,Pro27,His34]-h-amylin (peptide)
peptide: {C20 diacid-γGlu}-GRCNTATCATQRLAAFLRHSSPNFGAIPSSTNVGHNTY-NH2
modifications: disulfide 3-8
SMILES: CC[C@H](C)[C@H](NC(=O)[C@H](C)NC(=O)CNC(=O)[C@H](Cc1ccccc1)NC(=O)[C@H](CC(N)=O)NC(=O)[C@@H]1CCCN1C(=O)[C@H](CO)NC(=O)[C@H](CO)NC(=O)[C@H](Cc1c[nH]cn1)NC(=O)[C@H](CCCNC(=N)N)NC(=O)[C@H](CC(C)C)NC(=O)[C@H](Cc1ccccc1)NC(=O)[C@H](C)NC(=O)[C@H](C)NC(=O)[C@H](CC(C)C)NC(=O)[C@H](CCCNC(=N)N)NC(=O)[C@H](CCC(N)=O)NC(=O)[C@@H](NC(=O)[C@H](C)NC(=O)[C@@H]1CSSC[C@H](NC(=O)[C@H](CCCNC(=N)N)NC(=O)CNC(=O)CC[C@H](NC(=O)CCCCCCCCCCCCCCCCCCC(=O)O)C(=O)O)C(=O)N[C@@H](CC(N)=O)C(=O)N[C@@H]([C@@H](C)O)C(=O)N[C@@H](C)C(=O)N[C@@H]([C@@H](C)O)C(=O)N1)[C@@H](C)O)C(=O)N1CCC[C@H]1C(=O)N[C@@H](CO)C(=O)N[C@@H](CO)C(=O)N[C@H](C(=O)N[C@@H](CC(N)=O)C(=O)N[C@H](C(=O)NCC(=O)N[C@@H](Cc1c[nH]cn1)C(=O)N[C@@H](CC(N)=O)C(=O)N[C@H](C(=O)N[C@@H](Cc1ccc(O)cc1)C(N)=O)[C@@H](C)O)C(C)C)[C@@H](C)O
IC50 [1]: 29.2 nM
Ratio hCT/hAmylin binding [2]: 68.6

B5: N^ε1-[2-[2-[2-(19-carboxynonadecanoylamino)ethoxy]ethoxy]acetyl]-[Arg17,Pro21,Pro27,His34]-h-amylin (peptide)
peptide: K([AEEA-C20 diacid])CNTATCATQRLANFLRHSSPNFGAIPSSTNVGHNTY-NH2
modifications: disulfide 2-7; N-terminus assumed
SMILES: CC[C@H](C)[C@H](NC(=O)[C@H](C)NC(=O)CNC(=O)[C@H](Cc1ccccc1)NC(=O)[C@H](CC(N)=O)NC(=O)[C@@H]1CCCN1C(=O)[C@H](CO)NC(=O)[C@H](CO)NC(=O)[C@H](Cc1c[nH]cn1)NC(=O)[C@H](CCCNC(=N)N)NC(=O)[C@H](CC(C)C)NC(=O)[C@H](Cc1ccccc1)NC(=O)[C@H](CC(N)=O)NC(=O)[C@H](C)NC(=O)[C@H](CC(C)C)NC(=O)[C@H](CCCNC(=N)N)NC(=O)[C@H](CCC(N)=O)NC(=O)[C@@H](NC(=O)[C@H](C)NC(=O)[C@@H]1CSSC[C@H](NC(=O)[C@@H](N)CCCCNC(=O)COCCOCCNC(=O)CCCCCCCCCCCCCCCCCCC(=O)O)C(=O)N[C@@H](CC(N)=O)C(=O)N[C@@H]([C@@H](C)O)C(=O)N[C@@H](C)C(=O)N[C@@H]([C@@H](C)O)C(=O)N1)[C@@H](C)O)C(=O)N1CCC[C@H]1C(=O)N[C@@H](CO)C(=O)N[C@@H](CO)C(=O)N[C@H](C(=O)N[C@@H](CC(N)=O)C(=O)N[C@H](C(=O)NCC(=O)N[C@@H](Cc1c[nH]cn1)C(=O)N[C@@H](CC(N)=O)C(=O)N[C@H](C(=O)N[C@@H](Cc1ccc(O)cc1)C(N)=O)[C@@H](C)O)C(C)C)[C@@H](C)O
notes: also called compound 91
IC50 [1]: 12 nM
Ratio hCT/hAmylin binding [2]: 101

B6: N^ε1-[2-[2-[2-[[2-[2-[2-[[(4S)-4-carboxy-4-(19-carboxynonadecanoylamino)butanoyl]amino]ethoxy]ethoxy]acetyl]amino]ethoxy]ethoxy]acetyl]-[Arg17,Pro21,Pro27,His34 … (peptide)
peptide: K([AEEA-AEEA-γGlu-C20 diacid])CNTATCATQRLANFLRHSSPNFGAIPSSTNVGHNTY-NH2
modifications: disulfide 2-7; N-terminus assumed
SMILES: CC[C@H](C)[C@H](NC(=O)[C@H](C)NC(=O)CNC(=O)[C@H](Cc1ccccc1)NC(=O)[C@H](CC(N)=O)NC(=O)[C@@H]1CCCN1C(=O)[C@H](CO)NC(=O)[C@H](CO)NC(=O)[C@H](Cc1c[nH]cn1)NC(=O)[C@H](CCCNC(=N)N)NC(=O)[C@H](CC(C)C)NC(=O)[C@H](Cc1ccccc1)NC(=O)[C@H](CC(N)=O)NC(=O)[C@H](C)NC(=O)[C@H](CC(C)C)NC(=O)[C@H](CCCNC(=N)N)NC(=O)[C@H](CCC(N)=O)NC(=O)[C@@H](NC(=O)[C@H](C)NC(=O)[C@@H]1CSSC[C@H](NC(=O)[C@@H](N)CCCCNC(=O)COCCOCCNC(=O)COCCOCCNC(=O)CC[C@H](NC(=O)CCCCCCCCCCCCCCCCCCC(=O)O)C(=O)O)C(=O)N[C@@H](CC(N)=O)C(=O)N[C@@H]([C@@H](C)O)C(=O)N[C@@H](C)C(=O)N[C@@H]([C@@H](C)O)C(=O)N1)[C@@H](C)O)C(=O)N1CCC[C@H]1C(=O)N[C@@H](CO)C(=O)N[C@@H](CO)C(=O)N[C@H](C(=O)N[C@@H](CC(N)=O)C(=O)N[C@H](C(=O)NCC(=O)N[C@@H](Cc1c[nH]cn1)C(=O)N[C@@H](CC(N)=O)C(=O)N[C@H](C(=O)N[C@@H](Cc1ccc(O)cc1)C(N)=O)[C@@H](C)O)C(C)C)[C@@H](C)O
notes: also called compound 97
IC50 [1]: 58.9 nM
Ratio hCT/hAmylin binding [2]: 104
